Reference: patent publication JP2018082720A (dated 2018)
Where “and” joins values, the source holds several entries; their conditions need not be identical. Equal entries are not always repeated. Values belong to the binder of their own block, whether it stands above or below them.

Legend:
[1] = biological target: T1, human MMP9 (human, UniProt P14780 20-707, limits assumed); assay: cell-based or functional assay
[2] = biological target: T1, human MMP9; assay: SPR
[3] = biological target: T1, human MMP9; assay: direct binding assay and SPR
[4] = biological target: T2, cynomolgus monkey MMP9 (cynomolgus monkey, UniProt A0A2K5UU71 20-706); assay: ELISA
T2 construct: also called カニクイザルMMP9; recombinant cynomolgus MMP9

[5] = biological target: T1, human MMP9; assay: ELISA
[6] = biological target: T3, rat MMP9 (rat, UniProt P50282 20-708, limits assumed); assay: ELISA
T3 construct: also called ラットMMP9; recombinant rat MMP9

[7] = biological target: T4, mouse MMP9 (mouse, UniProt P41245 20-730, limits assumed); assay: cell-based or functional assay
[8] = biological target: T4, mouse MMP9; assay: ELISA

T1 sequence (P14780 20-707 Q279R/R574P limits assumed): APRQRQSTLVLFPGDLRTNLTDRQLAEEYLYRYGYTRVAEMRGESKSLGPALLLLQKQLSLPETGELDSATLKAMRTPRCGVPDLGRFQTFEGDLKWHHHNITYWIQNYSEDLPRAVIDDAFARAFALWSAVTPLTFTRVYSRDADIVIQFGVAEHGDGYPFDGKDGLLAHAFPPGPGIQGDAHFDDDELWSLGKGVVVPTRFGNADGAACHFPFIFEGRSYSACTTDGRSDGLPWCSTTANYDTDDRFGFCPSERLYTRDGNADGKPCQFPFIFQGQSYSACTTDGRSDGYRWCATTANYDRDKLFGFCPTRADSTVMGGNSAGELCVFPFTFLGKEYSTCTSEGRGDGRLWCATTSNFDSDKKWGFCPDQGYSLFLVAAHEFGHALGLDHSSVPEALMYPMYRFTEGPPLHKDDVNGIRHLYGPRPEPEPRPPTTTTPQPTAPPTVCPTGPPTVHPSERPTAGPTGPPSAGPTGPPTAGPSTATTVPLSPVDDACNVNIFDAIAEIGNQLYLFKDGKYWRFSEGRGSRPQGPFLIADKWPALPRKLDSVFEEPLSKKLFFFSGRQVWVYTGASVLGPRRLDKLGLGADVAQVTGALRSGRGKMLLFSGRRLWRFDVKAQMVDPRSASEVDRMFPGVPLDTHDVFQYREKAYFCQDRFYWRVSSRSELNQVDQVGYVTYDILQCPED
T2 sequence (A0A2K5UU71 entry or part of it): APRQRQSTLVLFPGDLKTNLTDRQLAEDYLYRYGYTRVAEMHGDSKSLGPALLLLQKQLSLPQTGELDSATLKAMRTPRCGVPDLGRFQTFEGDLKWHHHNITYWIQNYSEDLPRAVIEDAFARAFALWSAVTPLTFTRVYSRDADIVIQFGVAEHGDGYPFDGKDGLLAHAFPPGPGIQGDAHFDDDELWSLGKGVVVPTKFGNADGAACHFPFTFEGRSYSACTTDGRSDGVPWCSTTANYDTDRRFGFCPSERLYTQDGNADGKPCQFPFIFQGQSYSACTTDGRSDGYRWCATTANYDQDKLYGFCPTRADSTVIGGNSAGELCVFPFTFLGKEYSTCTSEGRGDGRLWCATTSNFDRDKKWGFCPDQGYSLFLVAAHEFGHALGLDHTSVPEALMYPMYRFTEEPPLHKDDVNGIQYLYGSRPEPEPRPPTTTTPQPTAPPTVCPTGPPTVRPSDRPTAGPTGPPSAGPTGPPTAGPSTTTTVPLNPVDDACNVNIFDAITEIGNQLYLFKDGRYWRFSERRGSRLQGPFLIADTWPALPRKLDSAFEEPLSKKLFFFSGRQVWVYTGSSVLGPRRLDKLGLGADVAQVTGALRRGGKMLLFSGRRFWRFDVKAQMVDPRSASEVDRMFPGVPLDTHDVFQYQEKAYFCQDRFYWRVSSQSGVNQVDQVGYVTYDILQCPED
T4 sequence (P41245 20-730 limits assumed): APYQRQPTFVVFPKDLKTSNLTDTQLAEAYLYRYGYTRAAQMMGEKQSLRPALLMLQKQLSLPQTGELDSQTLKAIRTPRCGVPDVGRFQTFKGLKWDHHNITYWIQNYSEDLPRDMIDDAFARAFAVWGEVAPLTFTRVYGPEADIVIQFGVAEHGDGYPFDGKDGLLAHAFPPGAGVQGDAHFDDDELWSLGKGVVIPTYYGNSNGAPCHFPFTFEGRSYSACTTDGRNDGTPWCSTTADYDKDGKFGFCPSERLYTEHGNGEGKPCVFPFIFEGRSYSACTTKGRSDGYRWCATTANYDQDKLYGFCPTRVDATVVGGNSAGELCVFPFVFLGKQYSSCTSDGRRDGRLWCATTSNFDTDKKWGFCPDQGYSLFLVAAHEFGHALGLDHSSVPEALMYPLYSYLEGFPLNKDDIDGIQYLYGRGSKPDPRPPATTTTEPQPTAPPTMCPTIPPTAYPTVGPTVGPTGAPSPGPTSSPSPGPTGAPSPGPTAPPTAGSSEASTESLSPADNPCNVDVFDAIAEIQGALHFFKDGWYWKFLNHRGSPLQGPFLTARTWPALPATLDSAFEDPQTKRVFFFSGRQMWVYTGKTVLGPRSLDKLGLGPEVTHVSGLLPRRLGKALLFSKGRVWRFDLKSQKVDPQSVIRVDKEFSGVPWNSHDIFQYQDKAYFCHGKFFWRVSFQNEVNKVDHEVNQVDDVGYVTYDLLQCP
T3 sequence (P50282 20-708 limits assumed): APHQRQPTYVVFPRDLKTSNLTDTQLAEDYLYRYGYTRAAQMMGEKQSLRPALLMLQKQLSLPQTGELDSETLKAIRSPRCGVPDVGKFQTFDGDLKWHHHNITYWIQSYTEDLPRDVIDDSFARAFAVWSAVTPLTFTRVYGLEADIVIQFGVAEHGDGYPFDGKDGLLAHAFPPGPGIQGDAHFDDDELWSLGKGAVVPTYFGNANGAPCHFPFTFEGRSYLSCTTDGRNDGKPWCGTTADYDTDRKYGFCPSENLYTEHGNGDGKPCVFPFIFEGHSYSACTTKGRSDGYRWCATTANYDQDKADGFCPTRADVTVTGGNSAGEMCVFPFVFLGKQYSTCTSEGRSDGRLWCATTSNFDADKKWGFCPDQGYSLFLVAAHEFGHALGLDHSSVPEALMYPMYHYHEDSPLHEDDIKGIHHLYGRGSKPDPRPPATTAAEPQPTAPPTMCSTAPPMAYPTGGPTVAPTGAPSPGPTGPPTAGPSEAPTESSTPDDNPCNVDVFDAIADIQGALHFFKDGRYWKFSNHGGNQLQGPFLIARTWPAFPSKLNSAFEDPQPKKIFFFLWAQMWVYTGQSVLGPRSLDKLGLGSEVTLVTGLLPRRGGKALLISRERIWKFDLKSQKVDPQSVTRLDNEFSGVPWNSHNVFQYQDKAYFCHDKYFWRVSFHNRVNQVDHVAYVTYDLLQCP

IC50, MMP9-mediated cleavage of fluorogenic peptide substrate Mca-PLGL-Dpa-AR-NH2 [1]: 691 pM
IC50, MMP9 enzyme assay under steady state [1]: 148 pM and 161 pM and 158 pM
Kd [2]: 8.8 pM
Kd [3]: ~1 pM
Kd [4]: < 400 pM
Kd [5]: < 400 pM and 168 pM
Kd [6]: < 400 pM
B1: AB0045 (antibody, V domains shown)
VH: QVQLQESGPGLVKPSETLSLTCTVSGFSLLSYGVHWVRQPPGKGLEWLGVIWTGGTTNYNSALMSRFTISKDDSKNTVYLKMNSLKTEDTAIYYCARYYYGMDYWGQGTLVTVSS
VL: DIQMTQSPSSLSASVGDRVTITCKASQDVRNTVAWYQQKPGKAPKLLIYSSSYRNTGVPDRFSGSGSGTDFTLTISSLQAEDVAVYYCQQHYITPYTFGGGTKVEIKR
notes: Humanized, modified human IgG4 (S241P) / kappa; also called AB0045; humanized variant anti-MMP9 antibody

IC50, MMP9-mediated cleavage of fluorogenic peptide substrate Mca-PLGL-Dpa-AR-NH2 [7]: 352 pM
Kd [8]: 218 pM
B2: AB0046 (antibody, V domains shown)
VH: QVQLQQPGSVLVRPGASVKLSCTASGYTFTSYWMNWVKQRPGQGLEWIGEIYPISGRTNYNEKFKVKATLTVDTSSSTAYMDLNSLTSEDSAVYYCARSRANWDDYWGQGTTLTVSS
VL: DIQMTQTTSSLSASLGDRVTISCSASQGISNYLNWYQQKPDGTFKLLIYYTSILHSGVPSRFSGSGSGTDYSLTISNLEPEDIATYYCQQYGWLPRTFGGGTKLEIKR
notes: Mouse IgG1 / kappa; also called AB0046; anti-mouse MMP9 antibody

IC50, MMP9-mediated cleavage of fluorogenic peptide substrate Mca-PLGL-Dpa-AR-NH2 [1]: 569 pM
Kd [2]: 0.4 pM
Kd [4]: < 400 pM
Kd [6]: < 400 pM
B3: AB0041 (antibody, V domains shown)
VH: QVQLKESGPGLVAPSQSLSITCTVSGFSLLSYGVHWVRQPPGKGLEWLGVIWTGGTTNYNSALMSRLSISKDDSKSQVFLKMNSLQTDDTAIYYCARYYYGMDYWGQGTSVTVSS
VL: DIVMTQSHKFMSTSVGDRVSITCKASQDVRNTVAWYQQKTGQSPKLLIYSSSYRNTGVPDRFTGSGSGTDFTFTISSVQAEDLAVYFCQQHYITPYTFGGGTKLEIKR
